{"source": "patent US20200234789A1", "about": "“DESIGNED PROTEINS FOR LIGAND BINDING” (THE REGENTS OF THE UNIVERSITY OF CALIFORNIA, priority 2017, published 2020)", "molecules": {"B1": {"name": "PS1: de novo designed porphyrin-binding four-helix bundle protein; designed sequence SEQ ID NO:1, expressed His-tag-cleaved sequence SEQ ID NO:2 (protein)", "chain": "SEFEKLRQTGDELVQAFQRLREIFDKGDDDSLEQVLEEIEELIQKHRQLFDNRQEAADTEAAKQGDQWVQLFQRFREAIDKGDKDSLEQLLEELEQALQKIRELAEKKN"}}, "experiment": "Analytical ultracentrifugation (equilibrium sedimentation), oligomeric state", "format": "physicochemical", "details": "analytical ultracentrifugation and gel filtration", "text": "FIG. 7A-7B. […] FIG. 7A: Analytical ultracentrifugation. Solutions of apo- and holo-PS1 were centrifuged at speeds ranging from 25,000 r.p.m. to 45,000 r.p.m. and monitored by absorbance at 280 nm. Parameters were globally fit to the data. Single-species fitting agrees well with the data over the entire range and yields the molecular weight of apo-PS1 […] and holo-PS1 12.24±0.91 kD, which agrees well with the 12.86 kD weight of PS1. […] Partial specific volumes were estimated from SEDNTERP^15 for amino acid side chains. FIG. 7B: Analytical gel filtration analysis of apo- and holo-PS1. Detection wavelengths are labeled as the same color as their respective curves. […] The small peak near 1.05 ml elution volume in holo-PS1 is unbound (excess), aggregated porphyrin eluting in the void volume of the superdex 75 5/150 column. Samples were run at concentrations of 100 μM and 37 μM for apo and holo, respectively, in 50 mM NaPi, 150 mM NaCl, pH 7.0 buffer.\nThe oligomeric state of apo- and holo-PS1 were determined by analytical equilibrium sedimentation performed at 25° C. using a Beckman XL-I analytical ultracentrifuge. Ultracentrifugation was conducted at speeds of 25K, 30K, 35K, 40K and 45K r.p.m., and the radial gradient profiles were obtained by absorbance at 280 nm. […]"}
{"molecule": "B1", "values": [{"measurement": "oligomeric state in solution", "result": "monomeric"}]}
